This passage reports percent of parent and response results from publication PMC9234238.

Experiment [1] addresses DLL4-Fc (UniProt Q9JI71). The experiment in a line: flow cytometry on cells (cell-based binding assay). Particulars: read off a plot; for percent of parent: HEK293T cells overexpressing N1 with Lfng cDNA, N1+LFNG set to 100%, parent: est. 100; for response: HEK293T cells overexpressing N1 without Lfng cDNA, MFI normalised to N1+LFNG = 100%, parent: est. 79.
For experiment [2], the target named is DLL1-Fc (UniProt Q61483). The experiment can be described thus: flow cytometry on cells (cell-based binding assay). The settings on record: HEK293T cells overexpressing N1 with Lfng cDNA; N1+LFNG set to 100%; parent: est. 100; read off a plot.

“full-length mouse NOTCH1 (WT N1), coexpressed with LFNG (from UniProt Q01705) N1-6V (Thr of the O-fucose site in EGF6 changed to Val; residue number not printed)”: the percent of parent in experiment [1] was 100 MFI(%); in experiment [2], 92 MFI(%).

“full-length mouse NOTCH1 (WT N1), expressed without LFNG (from UniProt Q01705) N1-6V (Thr of the O-fucose site in EGF6 changed to Val; residue number not printed)”: the response in experiment [1] is 75 MFI(%).

As to “full-length mouse NOTCH1 (WT N1), coexpressed with LFNG (from UniProt Q01705) N1-26V (Thr of the O-fucose site in EGF26 changed to Val; residue number not printed)”, the percent of parent in experiment [1] was 100 MFI(%); in experiment [2] it was 89 MFI(%).

For “full-length mouse NOTCH1 (WT N1), expressed without LFNG (from UniProt Q01705) N1-27V (Thr of the O-fucose site in EGF27 changed to Val; residue number not printed)”, in experiment [1], the response was 82 MFI(%).

As for “full-length mouse NOTCH1 (WT N1), expressed without LFNG (from UniProt Q01705) N1-16V (Thr of the O-fucose site in EGF16 changed to Val; residue number not printed)”, the response in experiment [1] is 79 MFI(%).

Consider “full-length mouse NOTCH1 (WT N1), coexpressed with LFNG (from UniProt Q01705) N1-16V (Thr of the O-fucose site in EGF16 changed to Val; residue number not printed)”, for which the percent of parent in experiment [1] was 89 MFI(%); in experiment [2], 90 MFI(%).

As to “full-length mouse NOTCH1 (WT N1), coexpressed with LFNG (from UniProt Q01705) N1-27V (Thr of the O-fucose site in EGF27 changed to Val; residue number not printed)”, the percent of parent in experiment [1] is 92 MFI(%); in experiment [2], 71 MFI(%).

In the case of “full-length mouse NOTCH1 (WT N1), expressed without LFNG (from UniProt Q01705) N1-26V (Thr of the O-fucose site in EGF26 changed to Val; residue number not printed)”, the response in experiment [1] is 85 MFI(%).
